Results from US20220010021A1 (Sanofi, published 2022).
Residue numbers refer to the chain shown, from its start.

Target: human FGFR1c + KLB receptor complex on HEK293 iLite FGF21 reporter cells (human, UniProt P11362 22-822; Q86Z14 1-1044)
Assay: cell-based or functional assay

Sequence of human FGFR1c + KLB receptor complex on HEK293 iLite FGF21 reporter cells (P11362 22-822, chain 1 of 2): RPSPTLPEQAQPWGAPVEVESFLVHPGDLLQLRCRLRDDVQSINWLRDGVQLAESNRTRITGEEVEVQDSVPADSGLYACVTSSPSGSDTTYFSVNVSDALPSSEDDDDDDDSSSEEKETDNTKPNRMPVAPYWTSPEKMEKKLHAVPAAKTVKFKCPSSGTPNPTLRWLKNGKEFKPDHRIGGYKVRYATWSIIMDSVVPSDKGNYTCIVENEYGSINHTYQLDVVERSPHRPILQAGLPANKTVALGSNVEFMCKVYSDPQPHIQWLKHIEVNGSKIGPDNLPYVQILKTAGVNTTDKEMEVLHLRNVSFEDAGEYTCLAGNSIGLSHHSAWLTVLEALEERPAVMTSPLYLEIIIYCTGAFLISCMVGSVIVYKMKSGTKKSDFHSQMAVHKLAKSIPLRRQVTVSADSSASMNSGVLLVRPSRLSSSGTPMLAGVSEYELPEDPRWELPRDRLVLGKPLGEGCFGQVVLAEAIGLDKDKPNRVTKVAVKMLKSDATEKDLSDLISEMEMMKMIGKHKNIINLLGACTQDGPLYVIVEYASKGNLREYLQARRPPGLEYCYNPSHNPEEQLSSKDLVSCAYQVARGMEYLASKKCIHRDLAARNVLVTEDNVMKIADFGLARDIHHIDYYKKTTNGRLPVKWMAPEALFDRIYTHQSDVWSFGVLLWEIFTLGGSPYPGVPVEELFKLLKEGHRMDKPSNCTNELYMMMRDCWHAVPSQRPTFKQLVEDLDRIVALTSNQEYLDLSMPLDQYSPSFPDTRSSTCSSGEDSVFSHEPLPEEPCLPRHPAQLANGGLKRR
Sequence of human FGFR1c + KLB receptor complex on HEK293 iLite FGF21 reporter cells (Q86Z14 whole entry, chain 2 of 2): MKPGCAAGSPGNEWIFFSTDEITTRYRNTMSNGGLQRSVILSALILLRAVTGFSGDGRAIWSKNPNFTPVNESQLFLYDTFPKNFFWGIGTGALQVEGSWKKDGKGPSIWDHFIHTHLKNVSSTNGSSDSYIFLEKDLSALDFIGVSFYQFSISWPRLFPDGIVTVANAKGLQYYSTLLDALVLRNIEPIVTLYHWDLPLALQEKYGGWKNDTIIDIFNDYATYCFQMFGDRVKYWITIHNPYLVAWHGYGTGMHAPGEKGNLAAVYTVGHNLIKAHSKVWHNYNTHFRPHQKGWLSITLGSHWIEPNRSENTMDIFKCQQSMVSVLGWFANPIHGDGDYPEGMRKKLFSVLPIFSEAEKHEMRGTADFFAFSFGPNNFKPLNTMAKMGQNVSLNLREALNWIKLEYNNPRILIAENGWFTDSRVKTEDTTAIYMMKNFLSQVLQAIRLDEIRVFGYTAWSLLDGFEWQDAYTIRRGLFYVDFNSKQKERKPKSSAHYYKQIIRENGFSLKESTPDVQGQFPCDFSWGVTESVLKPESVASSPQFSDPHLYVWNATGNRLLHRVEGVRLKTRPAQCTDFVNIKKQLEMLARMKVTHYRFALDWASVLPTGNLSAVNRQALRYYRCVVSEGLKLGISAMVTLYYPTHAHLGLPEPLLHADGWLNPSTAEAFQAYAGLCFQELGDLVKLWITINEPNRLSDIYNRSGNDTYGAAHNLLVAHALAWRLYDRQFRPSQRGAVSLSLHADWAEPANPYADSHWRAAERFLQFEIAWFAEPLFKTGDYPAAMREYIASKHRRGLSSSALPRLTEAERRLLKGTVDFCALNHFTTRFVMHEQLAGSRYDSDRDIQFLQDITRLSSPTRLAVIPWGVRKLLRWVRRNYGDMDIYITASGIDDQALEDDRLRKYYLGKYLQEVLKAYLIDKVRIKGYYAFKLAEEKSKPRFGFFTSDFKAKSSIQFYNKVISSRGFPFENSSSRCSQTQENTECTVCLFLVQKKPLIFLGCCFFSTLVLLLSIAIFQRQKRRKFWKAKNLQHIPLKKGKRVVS

B1: Ab0305 (antibody, IgG4, V domains shown)
VH: QVTLKESGPVLVKPTETLTLTCTVSGFSLNNARVGVSWIRQPPGKALEWLAHIFSNDEKSYSTSLKSRLTISKDTSKSQVVLTMTNMDPVDTATYYCARSVVTGGYYYEGMDVWGQGTTVTVSS
VL: SYVLTQPPSVSVAPGQTARITCGGSNIGSESVHWYQQKPGQAPVLVVYYESDRPSGIPERFSGSNSGNTATLTISRVEAGDEADYYCQVWTGNSDHVVFGGGTKLTVLG
Question: Which EC50 does the source give for B1 here?
Answer: 208 nM

Question: And the Emax?
Answer: 647%

B2: Ab0317 (antibody, IgG4, V domains shown)
VH: B1 VH
VL: B1 VL with S25N, Y49D, N93E
Question: Which results are given for B2?
Answer: EC50: 0.17 nM; Emax: 968%

B3: Ab0395 (antibody, IgG4, V domains shown)
VH: B1 VH with F54W
VL: SYVLTQPPSVSVAPGQTARITCGGNNIGSESVHWYQQKPGQAPVLVVDDSDRPSGIPERFSGSNSGNTATLTISRVEAGDEADYYCQVFDGNSAHVVFGGGTKLTVLG
Question: For B3, which EC50 is on record?
Answer: > 100 nM

B4: Ab0318 (antibody, IgG4, V domains shown)
VH: B1 VH
VL: B1 VL with Y49D, N93E
Question: With B4 as the binder, how does the EC50 read?
Answer: 0.3 nM

Question: And the Emax?
Answer: 817%

B5: Ab0316 (antibody, IgG4, V domains shown)
VH: B1 VH
VL: B1 VL with E50D, N93E
Question: Which results are given for B5?
Answer: EC50: 0.45 nM; Emax: 730%

B6: Ab0320 (antibody, IgG4, V domains shown)
VH: B1 VH
VL: B1 VL with N93E
Question: How did the EC50 turn out when B6 was run?
Answer: 1.29 nM

Question: And the Emax?
Answer: 699%

B7: Ab0315 (antibody, IgG4, V domains shown)
VH: B1 VH
VL: B1 VL with S25N, E50D, N93E
Question: What does the source list for B7?
Answer: EC50: 0.37 nM; Emax: 806%

B8: Ab0319 (antibody, IgG4, V domains shown)
VH: B1 VH
VL: B1 VL with S25N, N93E
Question: For B8, which EC50 is on record?
Answer: 0.3 nM

Question: And the Emax?
Answer: 698%

B9: Ab0378 (antibody, IgG4, V domains shown)
VH: B1 VH with H52S, F54W
VL: B3 VL with A94V
Question: For B9, which EC50 is on record?
Answer: > 100 nM

B10: Ab0383 (antibody, IgG4, V domains shown)
VH: B1 VH with H52W
VL: B3 VL with A94V
Question: For B10, which EC50 is on record?
Answer: > 100 nM

B11: Ab0396 (antibody, IgG4, V domains shown)
VH: B1 VH with H52S, F54W
VL: B3 VL
Question: Which EC50 does the source give for B11 here?
Answer: > 100 nM

B12: Ab0401 (antibody, IgG4, V domains shown)
VH: B1 VH with H52W
VL: B3 VL
Question: How did the EC50 turn out when B12 was run?
Answer: > 100 nM

B13: Ab0371 (antibody, IgG4, V domains shown)
VH: B1 VH with H52W
VL: B3 VL with F89H, A94E
Question: For B13, which EC50 is on record?
Answer: > 100 nM

B14: Ab0389 (antibody, IgG4, V domains shown)
VH: B1 VH with H52S, F54W
VL: B3 VL with S1C, S93C, A94S
Question: Which EC50 does the source give for B14 here?
Answer: > 100 nM

B15: Ab0398 (antibody, IgG4, V domains shown)
VH: B1 VH with H52S, F54W
VL: B3 VL with S1C, S93C
Question: Which EC50 does the source give for B15 here?
Answer: > 100 nM

B16: Ab0373 (antibody, IgG4, V domains shown)
VH: B1 VH with H52W
VL: B3 VL with F89H, S93C, A94E, H95C
Question: Which EC50 does the source give for B16 here?
Answer: > 100 nM

B17: Ab0375 (antibody, IgG4, V domains shown)
VH: B1 VH with F54W
VL: B3 VL with S1C, S93C, A94E
Question: B17 was tested. Which EC50 did it give?
Answer: > 100 nM

B18: Ab0400 (antibody, IgG4, V domains shown)
VH: B1 VH with H52S, F54W
VL: B3 VL with S93C, H95C
Question: For B18, which EC50 is on record?
Answer: > 100 nM

B19: Ab0397 (antibody, IgG4, V domains shown)
VH: B1 VH with F54W
VL: B3 VL with S1C, S93C
Question: B19 was tested. Which EC50 did it give?
Answer: > 100 nM

B20: Ab0377 (antibody, IgG4, V domains shown)
VH: B1 VH with F54W
VL: B3 VL with A94V
Question: How did the EC50 turn out when B20 was run?
Answer: > 100 nM

B21: Ab0382 (antibody, IgG4, V domains shown)
VH: B1 VH with H52S, F54W
VL: B3 VL with S93C, A94V, H95C
Question: Which EC50 does the source give for B21 here?
Answer: > 100 nM

B22: Ab0379 (antibody, IgG4, V domains shown)
VH: B1 VH with F54W
VL: B3 VL with S1C, S93C, A94V
Question: How did the EC50 turn out when B22 was run?
Answer: > 100 nM

Question: And the Emax?
Answer: 171%

B23: Ab0393 (antibody, IgG4, V domains shown)
VH: B1 VH with H52W
VL: B3 VL with S93C, A94S, H95C
Question: With B23 as the binder, how does the EC50 read?
Answer: > 100 nM

B24: Ab0394 (antibody, IgG4, V domains shown)
VH: B1 VH with H52W
VL: B3 VL with S1C, S93C, A94S
Question: With B24 as the binder, how does the EC50 read?
Answer: > 100 nM

B25: Ab0372 (antibody, IgG4, V domains shown)
VH: B1 VH with H52W
VL: B3 VL with S1C, F89H, S93C, A94E
Question: With B25 as the binder, how does the EC50 read?
Answer: > 100 nM

B26: Ab0380 (antibody, IgG4, V domains shown)
VH: B1 VH with H52S, F54W
VL: B3 VL with S1C, S93C, A94V
Question: With B26 as the binder, how does the EC50 read?
Answer: > 100 nM

B27: Ab0374 (antibody, IgG4, V domains shown)
VH: B1 VH with F54W
VL: B3 VL with A94E
Question: B27 was tested. Which EC50 did it give?
Answer: > 100 nM

B28: Ab0399 (antibody, IgG4, V domains shown)
VH: B1 VH with F54W
VL: B3 VL with S93C, H95C
Question: Which EC50 does the source give for B28 here?
Answer: > 100 nM

B29: Ab0376 (antibody, IgG4, V domains shown)
VH: B1 VH with F54W
VL: B3 VL with S93C, A94E, H95C
Question: With B29 as the binder, how does the EC50 read?
Answer: > 100 nM

B30: Ab0392 (antibody, IgG4, V domains shown)
VH: B1 VH with H52W
VL: B3 VL with A94S
Question: Which EC50 does the source give for B30 here?
Answer: > 100 nM

B31: Ab0381 (antibody, IgG4, V domains shown)
VH: B1 VH with F54W
VL: B3 VL with S93C, A94V, H95C
Question: B31 was tested. Which EC50 did it give?
Answer: > 100 nM

B32: Ab0391 (antibody, IgG4, V domains shown)
VH: B1 VH with H52S, F54W
VL: B3 VL with S93C, A94S, H95C
Question: With B32 as the binder, how does the EC50 read?
Answer: > 100 nM

B33: Ab0390 (antibody, IgG4, V domains shown)
VH: B1 VH with F54W
VL: B3 VL with S93C, A94S, H95C
Question: How did the EC50 turn out when B33 was run?
Answer: > 100 nM
